Assay [1] addresses T1, 2PT-NBD1 (human CFTR NBD1, residues 387–646, S492P/A534P/I539T) (human, UniProt P13569 387-646, S492P | A534P | I539T, biotin (in the ELISA; site not stated)). Kind of assay: ELISA; printed as pEC50 7.9. For orientation: An ELISA detects its analyte on a solid surface through an enzyme-linked reagent.
Assay [2] deals with T1, 2PT-NBD1 (human CFTR NBD1, residues …). Kind of assay: ELISA; printed as pEC50 5.8.
Assay [3] shares this target. Kind of assay: ELISA; printed as pEC50 8.4.
The target is the same in assay [4]. Kind of assay: ELISA; printed as pEC50 8.7.
The target is the same in assay [5]. The assay is described as follows: ELISA; printed as pEC50 7.6.

T1 sequence (P13569 387-646 S492P/A534P/I539T): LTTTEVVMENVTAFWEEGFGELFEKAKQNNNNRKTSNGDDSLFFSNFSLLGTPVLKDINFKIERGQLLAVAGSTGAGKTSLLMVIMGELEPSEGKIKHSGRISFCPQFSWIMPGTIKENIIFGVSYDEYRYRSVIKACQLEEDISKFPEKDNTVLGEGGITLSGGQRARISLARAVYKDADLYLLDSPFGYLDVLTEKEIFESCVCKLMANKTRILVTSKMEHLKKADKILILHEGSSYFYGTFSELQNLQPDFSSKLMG

B1: nanobody T2a (VHH)
VHH: QVQLQESGGGLVQAGGSLRLSCAASGSIFRIDAMGWYRQAPGKQRELVAHSTSGGSTDYADSVKGRFTISRDNAKNTVYLQMNSLKPEDTAVYYCNADVRTRWYASNNYWGQGTQVTVSS
In the case of B1, the concentration giving a half-maximal response (EC50) in assay [1] was determined as 12.6 nM.

B2: nanobody G3a (VHH)
VHH: QVQLQESGGGLVQAGGSLRLSCTASGRAFSWYVMGWFRQAPGKEREFVATVSGNGSRRDYADSVKGRFTISRDNAKNTVYLQMNSLKPEDTAVYYCAASSTYYYTDPEKYDYWGQGTQVTVSS
In turn, B2 showed an EC50 in assay [2] of 1580 nM.

B3: nanobody T4 (VHH)
VHH: QVQLQESGGGLVQAGGSLRLSCAASGSTFAIIAMGWYRQAPGKQRELVAVISTGDTRYADSVKGRFTISRDNAKNTVYLQMDSLRPEDTAVYYCNAAVQVRDYRNYWGQGTQVTVSS
In turn, B3 registered an EC50 in assay [3] of 3.98 nM.

B4: nanobody T27 (VHH)
VHH: QVQLQESGGGLEQPGGSLRLSCATSGVIFGINAMGWYRQAPGKQRELVATFTSGGSTNYADFVEGRFTISRDNAKNTVYLQMNGLRPEDTAVYYCHATVVVSRYGLTYDYWGQGTQVTVSS
Consider B4, for which the EC50 in assay [4] was found to be 2 nM.

B5: nanobody T8 (VHH)
VHH: QVQLQESGGGLVQPGGSLRLSCAASGSTSSINAMGWYRQAPGKQREPVAISSSGGDTRYAEPVKGRFTISRDNAQNKVYLQMNSLKPEDTAVYYCWLNWGRTSVNSWGQGTQVTVSS
Consider B5, for which the response in assay [1] was half-maximal at 12.6 nM (EC50). That is a double-digit nanomolar value.

B6: nanobody D12 (VHH)
VHH: QVQLQESGGGLVQAGSSLRLACAATGSIRSINNMGWYRQAPGKQRGMVAIITRVGNTDYADSVKGRFTISRDNAKNTVYLQMNSLKPEDTATYYCHAEITEQSRPFYLTDDYWGQGTQVTVSS
On to B6, for which, in assay [5], the EC50 is 25.1 nM.

As a reminder, the EC50 is the concentration at which the effect is half-maximal. A low value points to a more potent agent.

For the origin of these results see article PMC6572788 (2019).
